Laboratory results from patent publication US20260217821A1 (SPH BIOTHERAPEUTICS SHANGHAI, published 2026).

Tests used:
recombinant ROR1 protein = biological target: T1, recombinant ROR1 protein (UniProt Q01973 30-403, limits assumed); assay: ELISA, OD450 (FIG. 6C)
T1 construct: also called his-tagged ROR1; not shown: his tag

[1] = biological target: T2, ROR1 expressed on cells (A549, MB231, JeKo-1, MEC-ROR1) (UniProt Q01973 30-937); assay: flow cytometry on JeKo-1 cells, 1 µg/ml, anti-HA APC
T2 construct: whole, on cells; also called ROR1-expressing cell lines; ROR1-positive cells

[2] = biological target: T2, ROR1 expressed on cells (A549, MB231, …); assay: flow cytometry on MB231 cells, 1 µg/ml, anti-HA APC
[3] = biological target: T2, ROR1 expressed on cells (A549, MB231, …); assay: flow cytometry on A549 cells, 1 µg/ml, anti-HA APC
[4] = biological target: T2, ROR1 expressed on cells (A549, MB231, …); assay: cell-based or functional assay

T2 sequence (Q01973 30-937): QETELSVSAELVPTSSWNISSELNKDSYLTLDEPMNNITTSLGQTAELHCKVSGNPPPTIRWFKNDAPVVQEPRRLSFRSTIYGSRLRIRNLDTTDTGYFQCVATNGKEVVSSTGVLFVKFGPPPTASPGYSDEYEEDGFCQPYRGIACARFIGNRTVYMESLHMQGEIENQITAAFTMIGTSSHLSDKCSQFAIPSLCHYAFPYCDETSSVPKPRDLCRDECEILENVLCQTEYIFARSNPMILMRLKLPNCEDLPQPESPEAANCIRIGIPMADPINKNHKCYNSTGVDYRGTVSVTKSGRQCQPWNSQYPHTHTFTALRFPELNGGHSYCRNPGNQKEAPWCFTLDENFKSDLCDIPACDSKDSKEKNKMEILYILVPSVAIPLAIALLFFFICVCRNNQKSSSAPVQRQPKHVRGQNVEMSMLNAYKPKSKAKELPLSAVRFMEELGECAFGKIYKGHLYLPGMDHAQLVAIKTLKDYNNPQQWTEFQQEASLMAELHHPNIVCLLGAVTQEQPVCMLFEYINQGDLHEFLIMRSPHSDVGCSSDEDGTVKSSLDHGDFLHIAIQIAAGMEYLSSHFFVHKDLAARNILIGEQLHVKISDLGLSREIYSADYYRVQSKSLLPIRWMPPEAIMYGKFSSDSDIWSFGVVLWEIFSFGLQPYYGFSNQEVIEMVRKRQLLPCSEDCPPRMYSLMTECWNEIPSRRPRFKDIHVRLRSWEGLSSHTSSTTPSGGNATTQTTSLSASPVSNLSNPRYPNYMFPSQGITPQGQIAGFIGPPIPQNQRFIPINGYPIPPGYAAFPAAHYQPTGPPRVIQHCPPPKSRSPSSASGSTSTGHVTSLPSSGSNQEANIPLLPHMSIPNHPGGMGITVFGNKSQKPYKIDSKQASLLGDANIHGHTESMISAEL
T1 sequence (Q01973 30-403 limits assumed): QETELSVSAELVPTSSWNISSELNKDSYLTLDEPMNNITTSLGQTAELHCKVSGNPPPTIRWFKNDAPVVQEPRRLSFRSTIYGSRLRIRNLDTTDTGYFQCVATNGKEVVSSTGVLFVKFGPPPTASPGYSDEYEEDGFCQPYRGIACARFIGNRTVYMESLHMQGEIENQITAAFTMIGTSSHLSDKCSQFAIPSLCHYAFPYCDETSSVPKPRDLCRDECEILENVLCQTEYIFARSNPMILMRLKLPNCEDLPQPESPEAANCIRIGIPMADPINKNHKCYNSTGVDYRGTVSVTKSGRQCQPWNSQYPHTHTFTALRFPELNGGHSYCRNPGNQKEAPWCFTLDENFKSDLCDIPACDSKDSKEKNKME

B1: VHH2 (VHH)
VHH: QVQLVESGGGLVQAGGSLRLSCAASGSIFSINAMAWYRHRPGMQRERVAAISSGGTTSYADSVKGRFTISRDNARDTLYLQMNSLKPEDTAMYYCAACPGDYTSTICNSDGMDYWGKGTLVTVSS
notes: Non-specific control VHH; also called non-specific VHH; negative control VHH2
Recombinant ROR1 protein
  binding result: no binding

B2: 4-92 (VHH)
VHH: QVQLQESGGGLVQPGGSLRLSCAASGFAFSSRAMSWVRQAPGKGLEWVSDINYDGAWTYYADSVKGRFTISRDNAKNTLYLQMNSLKPEDTAVYFCTDPWSIDGWGQGTQVTVSS
notes: Alpaca VHH from the phage library; not shown: one his tag and one HA tag at the C-terminus
[1]
  proportion of binding cells: 2.96%
[2]
  proportion of binding cells: 74.3%
[3]
  proportion of binding cells: 34.6%

B3: hu5-26 ROR1 VHH CAR (other)
chain: QVQLVESGGGLVQPGGSLRLSCAASGFTLDLYAIGWFRQAPGKERGLVSCISSGGSTNYAESVKGRFTISRDNSKNTVYLQMNSLRSEDTAVYYCVRSVPSCGSYYFPPRNMNYWGQGTLVTVSSIEVMYPPPYLDNEKSNGTIIHVKGKHLCPSPLFPGPSKPFWVLVVVGGVLACYSLLVTVAFIIFWVKRGRKKLLYIFKQPFMRPVQTTQEEDGCSCRFPEEEEGGCELRVKFSRSADAPAYKQGQNQLYNELNLGRREEYDVLDKRRGRDPEMGGKPRRKNPQEGLYNELQKDKMAEAYSEIGMKGERRRGKGHDGLYQGLSTATKDTYDALHMQALPPR
[4]
  proportion of target cells (surviving, GFP-labeled) after 24 hours, effector-to-target ratio 1:1, MB231: 2.96%
  proportion of target cells (surviving, GFP-labeled) after 24 hours, effector-to-target ratio 1:1, MEC-ROR1: 1.93%

B4: 5-26 (VHH)
VHH: QVQLQESGGGLVQPGGSLRLSCAASGFTLDLYAIGWFRQAPGKERERVSCISSGGSTNYAESVKGRFTISRDNGKNTVYLQMNSLKPEDTAVYYCVRSVPSCGSYYFPPRNMNYWGKGTQVTVSS
notes: as for B2
[1]
  proportion of binding cells: 99.7%
[2]
  proportion of binding cells: 96.8%
[3]
  proportion of binding cells: 97%

B5: 5-09 (VHH)
VHH: QVQLQESGGGLVQPGGSLRLSCAASGFTLDDYAIGWFRQAPGKERERISCISSGGNTNYADSVKGRFTLSRDNAKNTVYLQMYSLKPEDTAVYYCTASIPSCASYYFPPRNMDYWGKGTQVTVSS
notes: also called 5-9; not shown: one his tag and one HA tag at the C-terminus
[1]
  proportion of binding cells: 1.9%
[2]
  proportion of binding cells: 61.7%
[3]
  proportion of binding cells: 18.5%

B6: 5-95 (VHH)
VHH: QVQLQESGGGLVQPGGSLRLSCAASGFTFSTYSMTWVRQAPGKGLEWVSDINSGGSVAYYTDSVKGRFTASRDNAKNTLYLQMNSLKPEDTAVYYCYEGGYHGGSPRGHGTQVTVSS
notes: not shown: one his tag and one HA tag at the C-terminus
[1]
  proportion of binding cells: 1.18%
[2]
  proportion of binding cells: 53.3%
[3]
  proportion of binding cells: 11.8%

B7: VHH1 (VHH)
VHH: QVQLVESGGGLVQPGGSLRLSCAASGFTFSDTWMNWVRQAPGKGLYWISAINPDGGNTAYADSVKGRFTISRDNAKNMVYLQMDNLRPEDTAMYYCAKGWVRLPDPDLVRGQGTQVTVSS
notes: Non-specific control VHH; also called non-specific VHH; negative control VHH1
Recombinant ROR1 protein
  binding result: no binding
